Data on five substances can be found in PMC3499583.

Several values for one entry are separate records, joined by “and”; a condition that tells them apart may be missing. Identical values can stand only once.

Experiment [1] concerns the target P. falciparum MTRAP TSR1+2 fragment, biotinylated bait (Cd4d3+4-biotin) (P. falciparum). The experiment is described as follows: SPR; equilibrium (steady state affinity model); biotinylated MTRAP or TSR1+2 captured on a streptavidin-coated chip, serial dilutions of purified Semaphorin-7A injected at 20 µl/min; Biacore T100, 37°C, HBS-EP; reference flow cell with biotinylated rat Cd4d3+4.

For experiment [2], the target named is P. falciparum MTRAP entire ectodomain, biotinylated bait (Cd4d3+4-biotin) (P. falciparum). The description is as above.
For experiment [3], the target named is Human Semaphorin-7A ectodomain, natural variant R460H, biotinylated bait (human). Put plainly: SPR; kinetic (dissociation model fitted to a family of binding curves); biotinylated Semaphorin-7A or its variants captured on a streptavidin-coated chip, serial dilutions of purified MTRAP injected at 100 µl/min; Biacore T100, 37°C, HBS-EP. (In general: Surface plasmon resonance follows binding to a sensor surface in real time, without labels.)

Experiment [4] concerns the target Human Semaphorin-7A ectodomain, natural variant R475T, biotinylated bait (human). Described as above.
The target of experiment [5] is Human Semaphorin-7A ectodomain, natural variant R474L, biotinylated bait (human). The description is as above.
The target in experiment [6] is Human Semaphorin-7A ectodomain, natural variant R207Q, biotinylated bait (human). The experiment is described as above.
For experiment [7], the target named is Human Semaphorin-7A ectodomain, natural variant S115T, biotinylated bait (human). The experiment is described as above.
In experiment [8] the target is Human Semaphorin-7A ectodomain, natural variant Q457K, biotinylated bait (human). The experiment is described as above.
The target of experiment [9] is Human Semaphorin-7A entire ectodomain, biotinylated bait (Cd4d3+4-biotin) (human). Described as above.
Experiment [10] concerns the target Human Semaphorin-7A ectodomain, natural variant Q530P, biotinylated bait (human). The experiment is described as above.
Experiment [11] addresses Human Semaphorin-7A ectodomain, natural variant E473V, biotinylated bait (human). Described as above.
In experiment [12] the target is purified monomeric Semaphorin-7A ectodomain (Cd4d3+4-His6) (human). The experiment is described as follows: SEC + other: amino acid analysis; peak fraction of the SEC of the equimolar mixture; amino acid composition compared with theoretical 1:1, 2:1 and 1:2 (Semaphorin-7A:MTRAP).
For experiment [13], the target named is Semaphorin-7A entire ectodomain, biotinylated bait (human). Put plainly: SPR; Biacore T100; biotinylated Semaphorin-7A ectodomain, PNGase F-treated form, single domains or variants captured on a streptavidin chip, purified monomeric MTRAP injected; reference biotinylated rat Cd4d3+4; 37°C, HBS-EP.
Experiment [14] concerns the target PNGase F-treated Semaphorin-7A, biotinylated bait (human). The description is as above.
In experiment [15] the target is Semaphorin-7A Sema domain, biotinylated bait (human) (UniProt O75326). The experiment is described as above.
Experiment [16] concerns the target purified monomeric Semaphorin-7A ectodomain (Cd4d3+4-His6) (human). Put plainly: SEC-MALS; Superdex200 10/30 in 50 mM Tris.HCl pH 7.5, 150 mM NaCl, 0.4 ml/min; Dawn Heleos-II and Optilab-Rex. (Size exclusion chromatography separates by hydrodynamic size, large species first.)
In experiment [17] the target is MTRAP TSR1+2 fragment, biotinylated bait (P. falciparum). The experiment is described as follows: SPR; Biacore T100; biotinylated MTRAP or TSR baits captured on a streptavidin chip, serial dilutions of purified Semaphorin-7A injected (20 µl/min for equilibrium); reference biotinylated rat Cd4d3+4; 37°C, HBS-EP.
The target of experiment [18] is MTRAP entire ectodomain, biotinylated bait (P. falciparum). The description is as above.
Experiment [19] deals with purified monomeric Semaphorin-7A ectodomain (Cd4d3+4-His6) (human). The experiment is described as follows: SEC; Superdex 200 Tricorn 10/600 in HBS-EP; nickel-purified His-tagged proteins alone and mixed at equimolar concentrations; fractions on SDS-PAGE, Coomassie.

The term Kd denotes the free concentration of one partner at which half of the binding sites on the other are occupied at equilibrium, for simple one-to-one binding. Low values mean a tighter complex, high ones a looser complex. The term koff denotes the rate constant with which the complex falls apart. One may read the stoichiometry N as the number of molecules, sites or subunits per partner or assembly.

UniProt O75326, sequence (O75326 53-490): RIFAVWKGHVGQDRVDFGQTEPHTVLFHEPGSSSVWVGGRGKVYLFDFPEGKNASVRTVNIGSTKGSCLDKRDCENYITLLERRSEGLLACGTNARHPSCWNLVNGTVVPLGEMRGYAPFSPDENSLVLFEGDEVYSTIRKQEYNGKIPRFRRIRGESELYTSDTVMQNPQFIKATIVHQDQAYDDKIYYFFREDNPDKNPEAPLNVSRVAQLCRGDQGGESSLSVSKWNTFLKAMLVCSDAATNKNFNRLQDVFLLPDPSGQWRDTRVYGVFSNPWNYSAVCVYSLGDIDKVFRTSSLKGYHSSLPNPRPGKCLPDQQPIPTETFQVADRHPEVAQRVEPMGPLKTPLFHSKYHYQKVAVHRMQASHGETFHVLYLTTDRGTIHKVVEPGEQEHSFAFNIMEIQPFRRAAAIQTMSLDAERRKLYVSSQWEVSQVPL

For “Human Semaphorin-7A entire ectodomain, soluble monomeric His-tagged (Cd4d3+4-His6), purified (domain or fragment)”, the Kd in [1] is 1940 nM and 1930 nM and 2000 nM; in experiment [2], 1070 nM and 850 nM and 1620 nM.

Turning to “P. falciparum MTRAP entire ectodomain, monomeric His-tagged, purified (domain or fragment)”, the koff was 0.049 s⁻¹ and 0.051 s⁻¹ and 0.05 s⁻¹ in experiment [3]; 0.059 s⁻¹ and 0.053 s⁻¹ and 0.056 s⁻¹ in [4]; 0.046 s⁻¹ and 0.057 s⁻¹ and 0.052 s⁻¹ in [5]; 0.054 s⁻¹ and 0.045 s⁻¹ and 0.05 s⁻¹ in experiment [6]; 0.053 s⁻¹ and 0.047 s⁻¹ and 0.05 s⁻¹ in [7]; 0.053 s⁻¹ and 0.058 s⁻¹ and 0.056 s⁻¹ in [8]. Besides, the dissociation rate constant (koff) was 0.058 s⁻¹ and 0.054 s⁻¹ and 0.056 s⁻¹ in [9]; 0.05 s⁻¹ and 0.055 s⁻¹ and 0.053 s⁻¹ in experiment [10]; 0.056 s⁻¹ and 0.054 s⁻¹ and 0.055 s⁻¹ in experiment [11].

Take “monomeric His-tagged MTRAP ectodomain lacking the Cd4d3+4-tag (domain or fragment)”: in experiment [12], the stoichiometry N was found to be 1.

Take “purified monomeric MTRAP (His-tagged ectodomain, analyte in SPR) (domain or fragment)”: the koff in [13] amounted to 0.061 s⁻¹; in experiment [14] it was 0.063 s⁻¹. This substance gave a Kd in experiment [15] of 830 nM.

As for “purified monomeric Semaphorin-7A ectodomain (Cd4d3+4-His6) (domain or fragment)”, the stoichiometry N in experiment [16] and in experiment [19] was 2 each time. For the same substance, the Kd was determined as 1960 nM in experiment [17] and 1180 nM in experiment [18].
